Test results published in publication PMC11828465.

Biological target: Vps26A (UniProt O75436)
Assay: BRET titration curves in live cells
Conditions: sites S72

## Rab7A (from UniProt P51149) NEK7KO HEK293 cells
reference: wild-type HEK293 cells
  other: BRET50: weaker; reference 0.0022±0.0009

## Rab7A (from UniProt P51149) NEK7KO HEK293 cells expressing HA–NEK7
reference: NEK7KO HEK293 cells
  other: BRET50: stronger; reference 0.0096±0.0039

## Rab7A (from UniProt P51149) S72A
reference: wild type RlucII–Rab7A
  other: BRET50: weaker; reference 0.0026±0.000512
